Experiment [1] has as its system mice. Kind of experiment: Three-chamber sociability assay. The class given is in vivo, mouse. The conditions noted are these: for social deficits / social behavior / social preference / social deficits: Ifng−/− mice; for social deficits / social behavior: diazepam 1.25 mg/kg i.p. 30 minutes prior to testing; for social preference / social deficits: single CSF (i.c.m.) injection of IFN-γ 20 ng, tested 24 hours post-injection. How it is done:
The three-chamber sociability test was conducted as previously described^31. Briefly, mice were transported to the testing room and habituated for at least one hour. The room was maintained in dim light and a white noise generator used to mitigate any unforeseen noises. Test boxes were fabricated, in-house, by a machine shop. Test mice were placed in the center chamber with the two outer chambers containing empty wire cages (Spectrum Diversified Designs) and allowed to explore for ten minutes (habituation phase). After the habituation phase, mice were return to the center chamber. A novel mouse (an 8-10 week old male C57BL/6J˜18-22 g) was placed under one cup and an object placed under the other. Prior to testing, the novel mouse was habituated to the cup by being placed under the cup for 10 minutes, 3 times a day for 5 days. Mice were allowed to explore for an additional ten minutes (social phase). A video tracking system (CleverSys) was used to quantify the time spent around each target. For 3-chamber experiments comparing social behavior between wild-type and SCID mice, data collected using males and females were combined because no significant effects were found between genders.
A rat monoclonal antibody to murine VLA4 (clone PS/2) was affinity purified from hybridoma supernatants and was used with the kind permission of Dr. Klaus Ley (La Jolla Institute of Allergy and Immunology, San Diego, Calif.). Mice were given two separate injections (i.p.; 0.2 mg in saline per mouse), four days apart, of either anti-VLA4 or rat anti-HRP for control (clone HRPN; BioXcell), then tested twenty-four hours post final injection.
(§1) Mice were anaesthetized with a ketamine/xylazine [ketamine (100 mg/kg) and xylazine (10 mg/kg)] injection (i.p.) or isoflurane (2%), then placed into a stereotaxic frame with the head at an approximately 45° angle. The skin above cisterna magna was cleaned and sanitize before a 1 cm incision was made. The underlying muscles were separated with forceps, retracted, and a small Hamilton syringe (33 G) was used to slowly inject 1 uL of saline or IFN-γ (20 ng; eBioscience) into the cisterna magna (i.c.m.). After injection the syringe was held in place for 5 minutes to avoid back-flow of CSF. After the syringe was removed, muscles were put back in place and skin was sutured. Mice were placed on a heating pad and given ketoprofen and baytril for recovery.
Diazepam (1.25 mg/kg) was delivered i.p. for 30 minutes prior to testing for social behavior.

Experiment [2] concerns mice. Put plainly: PTZ induced seizures. Format: in vivo, mouse. The conditions noted are these: IFN-γ i.c.m. 24 hours prior to PTZ 40 mg/kg i.p. How it is done: IFN-γ was injected (i.c.m.) into the CSF through the cisterna magna (i.c.m.), as described above, 24 hours prior to inducing seizures. Control mice were injected with the same volume of saline. To induce seizures, mice were injected with PTZ (40 mg/kg; i.p.). After injection, mice were placed into an empty housing cage and recorded for video analysis. Seizures were analyzed by a blinded observer using a behavior scoring system previously published^41.

In experiment [3] the test system is layer I neocortical neurons. Put plainly: c-fos immunohistochemistry in PFC after CSF injection. Format: in vivo, mouse. The conditions noted are these: IFN-γ injected into the CSF (i.c.m.) 2 hours prior to sacrificing. On the procedure: Mice were sacrificed under Euthasol then transcardially perfused with PBS with heparin. Brains were removed and drop fixed in 4% PFA for 48 hours. After fixation, brains were washed with PBS, cryoprotected with 30% sucrose, then frozen in O.C.T. compound (Sakura Finetek) and sliced ([…]) with a cryostat (Leica). Free-floating sections were maintained in PBS+Azide (0.02%) until further processing. Immunohistochemistry for c-fos (1:1000 dilution; Millipore) on free-floating sections was performed as previously described^39.
as §1

In experiment [4] the test system is layer 2/3 prefrontal cortical neurons. Put plainly: Whole-cell patch-clamp of tonic inhibitory currents in acute brain slices. The class given is cell-based, mouse. On the procedure: Visualized whole-cell patch-clamp recordings were performed on layer 2/3 prefrontal cortical neurons prepared from acute brain slices (adult) using the protective recovery method^42. Recordings were performed in 34° C. artificial cerebrospinal fluid (ACSF) containing (in mM) 131.5 NaCl, 25 NaHCO3, 12 D-glucose, 2.5 KCl, 1.25 NaH2PO4, 2 CaCl2, and 1 MgCl2. ACSF also contained 3 mM kynurenic acid to block synaptic excitation and […] NO-711 to enhance tonic inhibition^43. Slices were incubated in this ACSF for 5-10 minutes prior to placement in the recording chamber. The patch pipette solution with elevated chloride contained (in mM) 140 CsCl, 4 NaCl, 1 MgCl2, 10 HEPES, 0.05 EGTA, 2 Mg-ATP, and 0.4 Mg-GTP^43. Once recordings equilibrated, baseline holding current in ACSF was measured for 3.5 minutes, after which ACSF containing IFN-γ (20 pg/mL) was applied for 8.5 minutes and then washed. Data presented show the mean holding current during the last minute of control (ACSF) and drug (ACSF+IFN-γ) conditions.
Background: Patch clamp records ionic current or voltage across a cell membrane.

A further experiment relates to Ifng−/− mice. Kind of experiment: Resting-state fMRI functional connectivity of PFC/insular nodes. Format: in vivo, mouse. The conditions noted are these: single injection of recombinant IFN-γ into the CSF. An excerpt: The protocol for rsfMRI was adapted from Zhan et al.^32. Mice were maintained under light anesthesia with (1-1.25%) isoflurane and images were acquired on a 7.0 Tesla MRI Clinscan system (Bruker, Etlingen, Germany) using a 30-mm inner-diameter mouse whole-body radiofrequency coil. High-resolution structural images were acquired by collecting 16×0.7 mm thick coronal slices using TR/TE 5,500/65 ms and an […]. A BOLD rsfMRI time series of 16×0.7 mm thick coronal slices were collected using TR/TE 4,000/17 ms and a 60o flip angle. For analysis, a structural template^33 was custom labeled using “The Mouse Brain” by Paxinos and Franklin as reference (FIGS. 6A-6C). The non-rigid transformation between the template and each individual mouse was estimated using the open source Advanced Normalization Tools (ANTs) package^34 that was then used to propagate the regional labels to each subject. […] The correlation matrix was determined from the clean fMRI data using the regions labels. […] When comparing networks from multiple sample groups, the threshold was determined by calculating the maximum threshold that leaves one of the networks connected (i.e., it is possible to reach any node in the network from any other node). […]

“Also recorded” adds a separate entry of the source.

On to `CN1C(=O)CN=C(c2ccccc2)c2cc(Cl)ccc21` [diazepam, reference compound], for which the results for the “social deficits / social behavior” value in the experiment with mice [1] and in the experiment on mice [1] (listed as Diazepam) were “rescued social deficits” and “successfully rescued social behavior”, respectively.

B1: IFN-γ: recombinant interferon-gamma cytokine (eBioscience), injected into the CSF via cisterna magna (protein, UniProt P01580 23-155, looked up)
Interferon gamma: HGTVIESLESLNNYFNSSGIDVEEKSLFLDIWRNWQKDGDMKILQSQIISFYLRLFEVLKDNQAISNNISVIESHLITTFFSNSKAKKDAFMSIAKFEVNNPQVQRQAFNELIRVVHQLLPESSLRKRKRSRC
For the molecule B1, the “latency to reach each seizure stage / seizure onset” value in the experiment on mice [2] is listed as “increased latency to reach each seizure stage; also recorded: delayed seizure onset”. The “maximum severity of seizures” value with mice [2] is “reduced the maximum severity of seizures; also recorded: lowered seizure severity”. The “susceptibility to PTZ induced seizures” value with mice [2] is reported as “less susceptible to PTZ induced seizures”. Further, the “c-fos+ cells in layer I of the PFC” value in experiment [3] was “increased the number of c-fos+ cells in Layer I of the PFC”; in experiment [3] (listed as recombinant IFN-γ), “activated layer I neocortical neurons”. In addition, the tonic inhibition entry in experiment [4] (VgatCre::Ifngr1fl/fl line, Cre− mice) was “increased tonic inhibition”. Besides, the tonic inhibitory current entry in experiment [4] (VgatCre::Ifngr1 fl/fl mice (IFN-γ receptor deleted from inhibitory neurons)) was “prevented IFN-γ from augmenting tonic inhibitory current”. In addition, the “tonic GABAergic inhibitory current (holding current)” value in experiment [4] (slices from wild-type mice, IFN-γ 20 pg/mL in ACSF for 8.5 minutes) is “increases tonic GABAergic inhibitory current; also recorded: augmented tonic current”. For the same molecule, in the experiment on mice [1] (Ifngr1−/− mice, IFN-γ injected into the CSF), the social deficits result was “not rescued”. In addition, the “social preference / social deficits” value is listed as “sufficient to rescue social deficits” with mice [1] and “sufficient to restore their social preference” in the experiment on mice [1] (listed as recombinant IFN-γ). Moreover, the “hyper-connectivity in the PFC (connections of local PFC/insular nodes)” value is recorded as “connections were reduced” with Ifng−/− mice (Jennrich test P=0.02) and “reduce overall hyper-connectivity in the PFC” in the experiment with Ifng−/− mice (Jennrich test P=0.02, listed as recombinant IFN-γ).
